{"source": "patent US20170224620A1", "about": "(Pfizer, published 2017)", "binders": {"B1": {"name": "P2-20 (truncation, Table 12) (peptide)", "peptide": "Ac-ACTWEVWGRECGG[Pra]G-NH2", "modifications": "disulfide 2-11", "SMILES": "C#CC[C@H](NC(=O)CNC(=O)CNC(=O)[C@@H]1CSSC[C@H](NC(=O)[C@H](C)NC(C)=O)C(=O)N[C@@H]([C@@H](C)O)C(=O)N[C@@H](Cc2c[nH]c3ccccc23)C(=O)N[C@@H](CCC(=O)O)C(=O)N[C@@H](C(C)C)C(=O)N[C@@H](Cc2c[nH]c3ccccc23)C(=O)NCC(=O)N[C@@H](CCCNC(=N)N)C(=O)N[C@@H](CCC(=O)O)C(=O)N1)C(=O)NCC(N)=O"}, "B2": {"name": "P2-15 (peptide)", "peptide": "H-DPCTWEVWGRECGG[Pra]G-NH2", "modifications": "disulfide 3-12", "SMILES": "C#CC[C@H](NC(=O)CNC(=O)CNC(=O)[C@@H]1CSSC[C@H](NC(=O)[C@@H]2CCCN2C(=O)[C@@H](N)CC(=O)O)C(=O)N[C@@H]([C@@H](C)O)C(=O)N[C@@H](Cc2c[nH]c3ccccc23)C(=O)N[C@@H](CCC(=O)O)C(=O)N[C@@H](C(C)C)C(=O)N[C@@H](Cc2c[nH]c3ccccc23)C(=O)NCC(=O)N[C@@H](CCCNC(=N)N)C(=O)N[C@@H](CCC(=O)O)C(=O)N1)C(=O)NCC(N)=O"}, "B3": {"name": "P2-18 (peptide)", "peptide": "H-DACTWEVWGRECGG[Pra]G-NH2", "modifications": "disulfide 3-12", "SMILES": "C#CC[C@H](NC(=O)CNC(=O)CNC(=O)[C@@H]1CSSC[C@H](NC(=O)[C@H](C)NC(=O)[C@@H](N)CC(=O)O)C(=O)N[C@@H]([C@@H](C)O)C(=O)N[C@@H](Cc2c[nH]c3ccccc23)C(=O)N[C@@H](CCC(=O)O)C(=O)N[C@@H](C(C)C)C(=O)N[C@@H](Cc2c[nH]c3ccccc23)C(=O)NCC(=O)N[C@@H](CCCNC(=N)N)C(=O)N[C@@H](CCC(=O)O)C(=O)N1)C(=O)NCC(N)=O"}, "B4": {"name": "P2-50 (peptide)", "peptide": "H-DPCTWEVWGRE[hCys]LQGG[Pra]G-NH2", "modifications": "disulfide 3-12", "SMILES": "C#CC[C@H](NC(=O)CNC(=O)CNC(=O)[C@H](CCC(N)=O)NC(=O)[C@H](CC(C)C)NC(=O)[C@@H]1CCSSC[C@H](NC(=O)[C@@H]2CCCN2C(=O)[C@@H](N)CC(=O)O)C(=O)N[C@@H]([C@@H](C)O)C(=O)N[C@@H](Cc2c[nH]c3ccccc23)C(=O)N[C@@H](CCC(=O)O)C(=O)N[C@@H](C(C)C)C(=O)N[C@@H](Cc2c[nH]c3ccccc23)C(=O)NCC(=O)N[C@@H](CCCNC(=N)N)C(=O)N[C@@H](CCC(=O)O)C(=O)N1)C(=O)NCC(N)=O"}, "B5": {"name": "P2-32 (peptide)", "peptide": "H-DPCTWRVWGRECLQGG[Pra]G-NH2", "modifications": "disulfide 3-12", "SMILES": "C#CC[C@H](NC(=O)CNC(=O)CNC(=O)[C@H](CCC(N)=O)NC(=O)[C@H](CC(C)C)NC(=O)[C@@H]1CSSC[C@H](NC(=O)[C@@H]2CCCN2C(=O)[C@@H](N)CC(=O)O)C(=O)N[C@@H]([C@@H](C)O)C(=O)N[C@@H](Cc2c[nH]c3ccccc23)C(=O)N[C@@H](CCCNC(=N)N)C(=O)N[C@@H](C(C)C)C(=O)N[C@@H](Cc2c[nH]c3ccccc23)C(=O)NCC(=O)N[C@@H](CCCNC(=N)N)C(=O)N[C@@H](CCC(=O)O)C(=O)N1)C(=O)NCC(N)=O"}, "B6": {"name": "P2-25 (peptide)", "peptide": "H-DPCVWEVWGRECLQGG[Pra]G-NH2", "modifications": "disulfide 3-12", "SMILES": "C#CC[C@H](NC(=O)CNC(=O)CNC(=O)[C@H](CCC(N)=O)NC(=O)[C@H](CC(C)C)NC(=O)[C@@H]1CSSC[C@H](NC(=O)[C@@H]2CCCN2C(=O)[C@@H](N)CC(=O)O)C(=O)N[C@@H](C(C)C)C(=O)N[C@@H](Cc2c[nH]c3ccccc23)C(=O)N[C@@H](CCC(=O)O)C(=O)N[C@@H](C(C)C)C(=O)N[C@@H](Cc2c[nH]c3ccccc23)C(=O)NCC(=O)N[C@@H](CCCNC(=N)N)C(=O)N[C@@H](CCC(=O)O)C(=O)N1)C(=O)NCC(N)=O"}, "B7": {"name": "P2-29 (peptide)", "peptide": "H-DPCTFEVWGRECLQGG[Pra]G-NH2", "modifications": "disulfide 3-12"}, "B8": {"name": "P2-33 (peptide)", "peptide": "H-DPCTWGVWGRECLQGG[Pra]G-NH2", "modifications": "disulfide 3-12", "SMILES": "C#CC[C@H](NC(=O)CNC(=O)CNC(=O)[C@H](CCC(N)=O)NC(=O)[C@H](CC(C)C)NC(=O)[C@@H]1CSSC[C@H](NC(=O)[C@@H]2CCCN2C(=O)[C@@H](N)CC(=O)O)C(=O)N[C@@H]([C@@H](C)O)C(=O)N[C@@H](Cc2c[nH]c3ccccc23)C(=O)NCC(=O)N[C@@H](C(C)C)C(=O)N[C@@H](Cc2c[nH]c3ccccc23)C(=O)NCC(=O)N[C@@H](CCCNC(=N)N)C(=O)N[C@@H](CCC(=O)O)C(=O)N1)C(=O)NCC(N)=O"}, "B9": {"name": "P2-26 (peptide)", "peptide": "H-DPCSWEVWGRECLQGG[Pra]G-NH2", "modifications": "disulfide 3-12", "SMILES": "C#CC[C@H](NC(=O)CNC(=O)CNC(=O)[C@H](CCC(N)=O)NC(=O)[C@H](CC(C)C)NC(=O)[C@@H]1CSSC[C@H](NC(=O)[C@@H]2CCCN2C(=O)[C@@H](N)CC(=O)O)C(=O)N[C@@H](CO)C(=O)N[C@@H](Cc2c[nH]c3ccccc23)C(=O)N[C@@H](CCC(=O)O)C(=O)N[C@@H](C(C)C)C(=O)N[C@@H](Cc2c[nH]c3ccccc23)C(=O)NCC(=O)N[C@@H](CCCNC(=N)N)C(=O)N[C@@H](CCC(=O)O)C(=O)N1)C(=O)NCC(N)=O"}, "B10": {"name": "P2-36 (peptide)", "peptide": "H-DPCTWEIWGRECLQGG[Pra]G-NH2", "modifications": "disulfide 3-12", "SMILES": "C#CC[C@H](NC(=O)CNC(=O)CNC(=O)[C@H](CCC(N)=O)NC(=O)[C@H](CC(C)C)NC(=O)[C@@H]1CSSC[C@H](NC(=O)[C@@H]2CCCN2C(=O)[C@@H](N)CC(=O)O)C(=O)N[C@@H]([C@@H](C)O)C(=O)N[C@@H](Cc2c[nH]c3ccccc23)C(=O)N[C@@H](CCC(=O)O)C(=O)N[C@@H]([C@@H](C)CC)C(=O)N[C@@H](Cc2c[nH]c3ccccc23)C(=O)NCC(=O)N[C@@H](CCCNC(=N)N)C(=O)N[C@@H](CCC(=O)O)C(=O)N1)C(=O)NCC(N)=O"}, "B11": {"name": "P2-16 (peptide)", "peptide": "H-CTWEVWGRECLQGG[Pra]G-NH2", "modifications": "disulfide 1-10", "SMILES": "C#CC[C@H](NC(=O)CNC(=O)CNC(=O)[C@H](CCC(N)=O)NC(=O)[C@H](CC(C)C)NC(=O)[C@@H]1CSSC[C@H](N)C(=O)N[C@@H]([C@@H](C)O)C(=O)N[C@@H](Cc2c[nH]c3ccccc23)C(=O)N[C@@H](CCC(=O)O)C(=O)N[C@@H](C(C)C)C(=O)N[C@@H](Cc2c[nH]c3ccccc23)C(=O)NCC(=O)N[C@@H](CCCNC(=N)N)C(=O)N[C@@H](CCC(=O)O)C(=O)N1)C(=O)NCC(N)=O"}, "B12": {"name": "P2-23 (peptide)", "peptide": "H-[Pra]CTWEVWGREC-NH2", "modifications": "disulfide 2-11", "SMILES": "C#CC[C@H](N)C(=O)N[C@H]1CSSC[C@@H](C(N)=O)NC(=O)[C@H](CCC(=O)O)NC(=O)[C@H](CCCNC(=N)N)NC(=O)CNC(=O)[C@H](Cc2c[nH]c3ccccc23)NC(=O)[C@H](C(C)C)NC(=O)[C@H](CCC(=O)O)NC(=O)[C@H](Cc2c[nH]c3ccccc23)NC(=O)[C@H]([C@@H](C)O)NC1=O"}, "B13": {"name": "P2-21 (peptide)", "peptide": "H-[Pra]ACTWEVWGREC-NH2", "modifications": "disulfide 3-12", "SMILES": "C#CC[C@H](N)C(=O)N[C@@H](C)C(=O)N[C@H]1CSSC[C@@H](C(N)=O)NC(=O)[C@H](CCC(=O)O)NC(=O)[C@H](CCCNC(=N)N)NC(=O)CNC(=O)[C@H](Cc2c[nH]c3ccccc23)NC(=O)[C@H](C(C)C)NC(=O)[C@H](CCC(=O)O)NC(=O)[C@H](Cc2c[nH]c3ccccc23)NC(=O)[C@H]([C@@H](C)O)NC1=O"}, "B14": {"name": "P2-19 (peptide)", "peptide": "H-ACTWEVWGRECGG[Pra]G-NH2", "modifications": "disulfide 2-11", "SMILES": "C#CC[C@H](NC(=O)CNC(=O)CNC(=O)[C@@H]1CSSC[C@H](NC(=O)[C@H](C)N)C(=O)N[C@@H]([C@@H](C)O)C(=O)N[C@@H](Cc2c[nH]c3ccccc23)C(=O)N[C@@H](CCC(=O)O)C(=O)N[C@@H](C(C)C)C(=O)N[C@@H](Cc2c[nH]c3ccccc23)C(=O)NCC(=O)N[C@@H](CCCNC(=N)N)C(=O)N[C@@H](CCC(=O)O)C(=O)N1)C(=O)NCC(N)=O"}, "B15": {"name": "P2-17 (peptide)", "peptide": "H-CTWEVWGRECGG[Pra]G-NH2", "modifications": "disulfide 1-10", "SMILES": "C#CC[C@H](NC(=O)CNC(=O)CNC(=O)[C@@H]1CSSC[C@H](N)C(=O)N[C@@H]([C@@H](C)O)C(=O)N[C@@H](Cc2c[nH]c3ccccc23)C(=O)N[C@@H](CCC(=O)O)C(=O)N[C@@H](C(C)C)C(=O)N[C@@H](Cc2c[nH]c3ccccc23)C(=O)NCC(=O)N[C@@H](CCCNC(=N)N)C(=O)N[C@@H](CCC(=O)O)C(=O)N1)C(=O)NCC(N)=O"}}, "biological_target": "T1, Fc tagged recombinant human EGFR (rhEGFR-Fc, R&D systems, Cat#344-ER-050) (human, UniProt P00533 25-645)", "T1 construct": "Bought protein; also called apo-EGFR; not shown: Fc tag", "test": "SPR", "description": "Surface plasmon resonance (SPR) binding studies were carried out on a Biacore T200 instrument (GE Healthcare). […] The contact time and resulting amount of rhEGFR-Fc capture was varied based on the nature of the analyte, namely whether it was a peptide or nanoparticle.\nPeptide binding assays were carried out in 10 mM PBS buffer supplemented with 0.05% surfactant P20 and 5% DMSO by volume, at 25° C. Peptides were injected over the rhEGFR-Fc surface for 60 s, followed by dissociation (buffer injection) for 60 s and regeneration with a 10 s pulse of 3M MgCl₂. A fresh rhEGFR-Fc surface was generated for each concentration of each peptide tested. Peptide binding data was analyzed by fitting to a 1:1 Langmuir kinetic model to obtain the on-rate (kₐ), off-rate (kd) and/or equilibrium binding constant (KD) of the interaction.", "note": "Bridges are numbered along the chain shown (N, C = ends). [ ]: non-standard residue; d: D form. hCys = N[C@@H](CCS)C(=O)O; Pra = C#CC[C@H](N)C(=O)O", "data": [{"binder": "B1", "values": [{"measurement": "KD/P2 KD", "result": 3, "unit": "ratio"}]}, {"binder": "B2", "values": [{"measurement": "KD/P2 KD", "result": 0.9, "unit": "ratio"}]}, {"binder": "B3", "values": [{"measurement": "KD/P2 KD", "result": 1.6, "unit": "ratio"}]}, {"binder": "B4", "values": [{"measurement": "Result (affinity relative to KD of P2)", "result": 4.56, "unit": "ratio"}]}, {"binder": "B5", "values": [{"measurement": "KD/P2 KD", "result": 1.21, "unit": "ratio"}]}, {"binder": "B6", "values": [{"measurement": "KD/P2 KD", "result": 1.1, "unit": "ratio"}]}, {"binder": "B7", "values": [{"measurement": "KD/P2 KD", "result": 9.24, "unit": "ratio"}]}, {"binder": "B8", "values": [{"measurement": "KD/P2 KD", "result": 42.7, "unit": "ratio"}]}, {"binder": "B9", "values": [{"measurement": "KD/P2 KD", "result": 1.68, "unit": "ratio"}]}, {"binder": "B10", "values": [{"measurement": "KD/P2 KD", "result": 3.48, "unit": "ratio"}]}, {"binder": "B11", "values": [{"measurement": "KD/P2 KD", "result": 2, "unit": "ratio"}]}, {"binder": "B12", "values": [{"measurement": "KD/P2 KD", "result": 4.5, "unit": "ratio"}]}, {"binder": "B13", "values": [{"measurement": "KD/P2 KD", "result": 6.7, "unit": "ratio"}]}, {"binder": "B14", "values": [{"measurement": "KD/P2 KD", "result": 2.4, "unit": "ratio"}]}, {"binder": "B15", "values": [{"measurement": "KD/P2 KD", "result": 0.4, "unit": "ratio"}]}]}
